Source: the supplement of paper PMC10567573

B1: FBXO3 (parent)
chain: GGFPIIRDQIFRYVHDPECVATTG

Variants of: B1
Assay: protein stability index of a GFP-peptide fusion (GPS, HEK-293T) (PSI 1-6); higher = more stable
Conditions: c terminus: a fixed tail appended
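Further: lentivirally expressed fusions sorted by FACS into six bins by GFP to DsRed ratio, PSI derived from sequencing read proportions per bin multiplied by bin number.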

Row | Variant | protein stability index
1 | GGFPIMRDQIFRYVHDPECVATTG [I6M] | 1.46
2 | GGFPINRDQIFRYVHDPECVATTG [I6N] | 2.34
3 | GGFPIQRDQIFRYVHDPECVATTG [I6Q] | 2.69
4 | GGFPIYRDQIFRYVHDPECVATTG [I6Y] | 1.99
5 | GGFPIWRDQIFRYVHDPECVATTG [I6W] | 1.82
6 | GGFPIFRDQIFRYVHDPECVATTG [I6F] | 1.46
7 | GGFPITRDQIFRYVHDPECVATTG [I6T] | 2.76
8 | GGFPIKRDQIFRYVHDPECVATTG [I6K] | 2.52
9 | GGFPIGRDQIFRYVHDPECVATTG [I6G] | 2.23
10 | GGFPIDRDQIFRYVHDPECVATTG [I6D] | 3.56
11 | GGFPIVRDQIFRYVHDPECVATTG [I6V] | 1.61
12 | GGFPILRDQIFRYVHDPECVATTG [I6L] | 2.16
13 | GGFPIHRDQIFRYVHDPECVATTG [I6H] | 2.32
14 | GGFPIRRDQIFRYVHDPECVATTG [I6R] | 2.13
15 | GGFPIERDQIFRYVHDPECVATTG [I6E] | 3.52
16 | GGFPIPRDQIFRYVHDPECVATTG [I6P] | 2.35
17 | GGFPIARDQIFRYVHDPECVATTG [I6A] | 2.57
18 | GGFPICRDQIFRYVHDPECVATTG [I6C] | 1.96
19 | GGFPIIRDQIFRMVHDPECVATTG [Y13M] | 2.88
20 | GGFPIIRDQIFRHVHDPECVATTG [Y13H] | 2.28
21 | GGFPIIRDQIFRWVHDPECVATTG [Y13W] | 2.18
22 | GGFPIIRDQIFRTVHDPECVATTG [Y13T] | 3.34
23 | GGFPIIRDQIFRIVHDPECVATTG [Y13I] | 2.39
24 | GGFPIIRDQIFRRVHDPECVATTG [Y13R] | 3.22

Row | Variant | protein stability index
25 | GGFPIIRDQIFRQVHDPECVATTG [Y13Q] | 3.65
26 | GGFPIIRDQIFRVVHDPECVATTG [Y13V] | 2.8
27 | GGFPIIRDQIFRCVHDPECVATTG [Y13C] | 2.32
28 | GGFPIIRDQIFRAVHDPECVATTG [Y13A] | 3.44
29 | GGFPIIRDQIFRKVHDPECVATTG [Y13K] | 2.79
30 | GGFPIIRDQIFRDVHDPECVATTG [Y13D] | 3.85
31 | GGFPIIRDQIFRLVHDPECVATTG [Y13L] | 2.51
32 | GGFPIIRDQIFRNVHDPECVATTG [Y13N] | 3.58
33 | GGFPIIRDQIFRPVHDPECVATTG [Y13P] | 3.84
34 | GGFPIIRDQIFRFVHDPECVATTG [Y13F] | 1.75
35 | GGFPIIRDQIFREVHDPECVATTG [Y13E] | 3.96
36 | GGFPIIRDQIFRSVHDPECVATTG [Y13S] | 3.62
37 | GGFPIIRDQIFRGVHDPECVATTG [Y13G] | 3.18
38 | GGFPIIMDQIFRYVHDPECVATTG [R7M] | 1.53
39 | GGFPIITDQIFRYVHDPECVATTG [R7T] | 2.72
40 | GGFPIISDQIFRYVHDPECVATTG [R7S] | 2.45
41 | GGFPIINDQIFRYVHDPECVATTG [R7N] | 2.83
42 | GGFPIIGDQIFRYVHDPECVATTG [R7G] | 2.99
43 | GGFPIIWDQIFRYVHDPECVATTG [R7W] | 2.21
44 | GGFPIIADQIFRYVHDPECVATTG [R7A] | 3.41
45 | GGFPIILDQIFRYVHDPECVATTG [R7L] | 1.32
46 | GGFPIIHDQIFRYVHDPECVATTG [R7H] | 2.56
47 | GGFPIIQDQIFRYVHDPECVATTG [R7Q] | 3.09
48 | GGFPIIIDQIFRYVHDPECVATTG [R7I] | 1.69

Row | Variant | protein stability index
49 | GGFPIIVDQIFRYVHDPECVATTG [R7V] | 1.73
50 | GGFPIIEDQIFRYVHDPECVATTG [R7E] | 3.79
51 | GGFPIIPDQIFRYVHDPECVATTG [R7P] | 2.47
52 | GGFPIIFDQIFRYVHDPECVATTG [R7F] | 1.67
53 | GGFPIICDQIFRYVHDPECVATTG [R7C] | 2.35
54 | GGFPIIDDQIFRYVHDPECVATTG [R7D] | 3.92
55 | GGFPIIYDQIFRYVHDPECVATTG [R7Y] | 1.87
56 | GGFPIIKDQIFRYVHDPECVATTG [R7K] | 2.4
57 | GGFPIIRDQIFRYEHDPECVATTG [V14E] | 3.51
58 | GGFPIIRDQIFRYDHDPECVATTG [V14D] | 3.78
59 | GGFPIIRDQIFRYPHDPECVATTG [V14P] | 3.32
60 | GGFPIIRDQIFRYKHDPECVATTG [V14K] | 2.83
61 | GGFPIIRDQIFRYCHDPECVATTG [V14C] | 1.93
62 | GGFPIIRDQIFRYNHDPECVATTG [V14N] | 2.92
63 | GGFPIIRDQIFRYIHDPECVATTG [V14I] | 2.57
64 | GGFPIIRDQIFRYYHDPECVATTG [V14Y] | 2.9
65 | GGFPIIRDQIFRYGHDPECVATTG [V14G] | 2.78
66 | GGFPIIRDQIFRYMHDPECVATTG [V14M] | 2.42
67 | GGFPIIRDQIFRYRHDPECVATTG [V14R] | 2.94
68 | GGFPIIRDQIFRYSHDPECVATTG [V14S] | 2.74
69 | GGFPIIRDQIFRYLHDPECVATTG [V14L] | 2.28
70 | GGFPIIRDQIFRYWHDPECVATTG [V14W] | 1.94
71 | GGFPIIRDQIFRYTHDPECVATTG [V14T] | 2.5
72 | GGFPIIRDQIFRYAHDPECVATTG [V14A] | 2.12

Row | Variant | protein stability index
73 | GGFPIIRDQIFRYQHDPECVATTG [V14Q] | 3.11
74 | GGFPIIRDQIFRYFHDPECVATTG [V14F] | 1.92
75 | GGFPIIRDQIFRYHHDPECVATTG [V14H] | 2.28
76 | GGFPIIRDQSFRYVHDPECVATTG [I10S] | 3.22
77 | GGFPIIRDQRFRYVHDPECVATTG [I10R] | 2.17
78 | GGFPIIRDQGFRYVHDPECVATTG [I10G] | 2.04
79 | GGFPIIRDQPFRYVHDPECVATTG [I10P] | 2.6
80 | GGFPIIRDQFFRYVHDPECVATTG [I10F] | 2.13
81 | GGFPIIRDQHFRYVHDPECVATTG [I10H] | 3.27
82 | GGFPIIRDQLFRYVHDPECVATTG [I10L] | 2.17
83 | GGFPIIRDQVFRYVHDPECVATTG [I10V] | 2.36
84 | GGFPIIRDQNFRYVHDPECVATTG [I10N] | 3.3
85 | GGFPIIRDQCFRYVHDPECVATTG [I10C] | 2.19
86 | GGFPIIRDQAFRYVHDPECVATTG [I10A] | 2.38
87 | GGFPIIRDQKFRYVHDPECVATTG [I10K] | 3.07
88 | GGFPIIRDQMFRYVHDPECVATTG [I10M] | 2.44
89 | GGFPIIRDQTFRYVHDPECVATTG [I10T] | 2.54
90 | GGFPIIRDQWFRYVHDPECVATTG [I10W] | 1.74
91 | GGFPIIRDQYFRYVHDPECVATTG [I10Y] | 2.57
92 | GGFPIIRDQQFRYVHDPECVATTG [I10Q] | 2.75
93 | GGFPIIRDQDFRYVHDPECVATTG [I10D] | 3.6
94 | GGFPIIRDQEFRYVHDPECVATTG [I10E] | 3.66
